# Where “and” joins values, the source holds several entries; their conditions need not be identical. Equal values may be shown once.
# B1: Butyrylcholinesterase (protein, UniProt P06276 29-602, looked up)
# Cholinesterase: EDDIIIATKNGKVRGMNLTVFGGTVTAFLGIPYAQPPLGRLRFKKPQSLTKWSDIWNATKYANSCCQNIDQSFPGFHGSEMWNPNTDLSEDCLYLNVWIPAPKPKNATVLIWIYGGGFQTGTSSLHVYDGKFLARVERVIVVSMNYRVGALGFLALPGNPEAPGNMGLFDQQLALQWVQKNIAAFGGNPKSVTLFGESAGAASVSLHLLSPGSHSLFTRAILQSGSFNAPWAVTSLYEARNRTLNLAKLTGCSRENETEIIKCLRNKDPQEILLNEAFVVPYGTPLSVNFGPTVDGDFLTDMPDILLELGQFKKTQILVGVNKDEGTAFLVYGAPGFSKDNNSIITRKEFQEGLKIFFPGVSEFGKESILFHYTDWVDDQRPENYREALGDVVGDYNFICPALEFTKKFSEWGNNAFFYYFEHRSSKLPWPEWMGVMHGYEIEFVFGLPLERRDNYTKAEEILSRSIVKRWANFAKYGNPNETQNNSTSWPVFKSTEQKYLTLNTESTRIMTKLRAQQCRFWTSFFPKVLEMTGNIDEAEWEWKAGFHRWNNYMMDWKNQFNDYTSKKESCVGL
# B2: Acetylcholinesterase (protein, UniProt P22303 32-614, looked up)
# Acetylcholinesterase: EGREDAELLVTVRGGRLRGIRLKTPGGPVSAFLGIPFAEPPMGPRRFLPPEPKQPWSGVVDATTFQSVCYQYVDTLYPGFEGTEMWNPNRELSEDCLYLNVWTPYPRPTSPTPVLVWIYGGGFYSGASSLDVYDGRFLVQAERTVLVSMNYRVGAFGFLALPGSREAPGNVGLLDQRLALQWVQENVAAFGGDPTSVTLFGESAGAASVGMHLLSPPSRGLFHRAVLQSGAPNGPWATVGMGEARRRATQLAHLVGCPPGGTGGNDTELVACLRTRPAQVLVNHEWHVLPQESVFRFSFVPVVDGDFLSDTPEALINAGDFHGLQVLVGVVKDEGSYFLVYGAPGFSKDNESLISRAEFLAGVRVGVPQVSDLAAEAVVLHYTDWLHPEDPARLREALSDVVGDHNVVCPVAQLAGRLAAQGARVYAYVFEHRASTLSWPLWMGVPHGYEIEFIFGIPLDPSRNYTAEEKIFAQRLMRYWANFARTGDPNEPRDPKAPQWPPYTAGAQQYVSLDLRPLEVRRGLRAQACAFWNRFLPKLLSATDTLDEAERQWKAEFHRWSSYMVHWKNQFDHYSKQDRCSDL
# Columns and labels:
# [1] = tested on: Wister rats; assay: Anti-inflammatory experiment with adjuvant arthritis rats; format: in vivo
# Description: (§1) 1. Materials and Reagents
# 1) Reagents: butyrylcholinesterase aqueous solution (activity: 300 U per mL solution) prepared following the method of Example 2; Fenbid liniment (ibuprofen), manufactured by GlaxoSmithKline (China) Investment Co, Ltd., Product batch number: 04050471.
# 2) Animals: Wister rats, 30, weight 200±2 g, of either sex, from Laboratory Animal Center, Sun Yat-sen University.
# Wister rats were randomly grouped into 3 groups with each group of 10. Following the method taught in Pharmacological Experimental Methodology (The third edition) (Xu Shuyun, et al., People's Health Publishing House, 2002, 1), each rat was administered 0.1 mL of Freund's adjuvant (FCA) in the right hindlimb by intradermal injection. After 0.5 h, the experimental group and Fenbid group were separately administered butylcholineterase aqueous solution and Fenbid in the inflammatory site of the right hindlimb, one time per day for a week. At 2 h, 6 h, 12 h, 24 h, 48 h, 72 h and 7 d after administration, the swelling degree of the right hindlimb of rats was separately measured by a vernier caliper.
# [2] = tested on: patients with summer diarrhea; assay: Prevention and treatment of summer diarrhea; format: in vivo; details: 0.5 mL of 200 U aqueous solution in 3 mL cold water, rinsed in mouth and swallowed, repeated after two hours
# Experimental: To 0.5 mL of butyrylcholinesterase (enzyme activity 200 U) aqueous solution, 3 mL of cold water was added. A portion of the solution was placed into the mouth of a patient, and lightly rinsed for 5-10 minutes. Then, the solution was swallowed. Two hours later, the previous steps were repeated.
# [3] = tested on: Kunming mice; assay: Analgesic experiment on mice by acetic acid twisting method; format: in vivo; details: for Inhibition rate (%): compared with saline solution group; for Writhing number: within 15 minutes after 0.6% acetic acid i.p.
# Description: as §1
# 1) Reagents: acetic acid, manufactured by Guangdong Xinning Chemical Plant; butyrylcholinesterase (activity: 200 U per mL solution) prepared following the method of Example 2; Fenbid liniment (ibuprofen), produced by GlaxoSmithKline (China) Investment Co, Ltd., Product batch number: 04050471.
# 2) Animals: Kunming mice, 40, weight 20±2 g, of either sex.
# Saline solution group (negative control group);
# Experimental group 1, smeared with butyrylcholinesterase aqueous solution;
# Experimental group 2, intraperitoneal injection with butyrylcholinesterase aqueous solution; and
# Fenbid group (positive control group).
# 40 Kunming mice were randomly grouped with each group 10. The negative control group was administered 0.9% saline solution (0.1 mL/10 g) by intraperitoneal injection. An area of 1×1 cm of the hair of the mice of the experimental group 1 was cut in the back, and butyrylcholinesterase (enzyme activity: 200 U per mL solution) was smeared onto it. The experimental group 2 was administered 0.1 mL/10 g butyrylcholinesterase solution (enzyme activity: 200 U per mL solution) by intraperitoneal injection. An area of 1×1 cm of the hair of the mice of the positive control group was cut in the back, and Fenbid was smeared onto it. Each group of mice was fed in different cages. At 5 minutes after administration, following the method taught in Pharmacological Experimental Methodology (3rd Edition) (Xu Shuyun, et al., People's Health Publishing House, 2002, 1), each mouse was administered 0.6% acetic acid ([…]) by intraperitoneal injection, and the writhing number of mice within 15 minutes was recorded. The number was compared with that of saline solution group (0.9%) to calculate writhing inhibition rate in mice.
# [4] = tested on: Substance P (SP); assay: Hydrolysis of Substance P (SP) by cholinesterase, flight mass spectrometry; format: biochemical; details: for first restriction site: SP C-terminal
# Experimental: Hydrolysis of SP was performed by acetylcholinesterase and butyrylcholinesterase separately.
# 1) Butyrylcholinesterase, specific activity 200 U, 50 mg of dry powder was dissolved in 5 mL of aqueous solution of iron(III) (double distilled water, Fe^+3 content, 1 mg/L) and centrifuged at 10,000 r/min for 4 minutes;
# 2) Butyrylcholinesterase, specific activity 200 U, 50 mg of dry powder was dissolved in 5 mL of double distilled water and centrifuged at 10,000 r/min for 4 minutes;
# 3) Acetylcholinesterase, specific activity 300 U, 20 mg of dry powder was dissolved in 1 mL of double distilled water and centrifuged at 10,000 r/min for 4 minutes.
# SP, with purity 98%, in an aqueous solution at a concentration 0.5 μg/mL.
# 3. Reaction 100 μL of the substrate and 100 μL of enzyme were mixed, and the initial reaction temperature was 22° C.
# Flight mass spectrometry: 1 μL of matrix (CHCA) and 1 μL of the reactant were mixed, and the mixture was directly assayed by flight mass spectrometry.
# [5] = tested on: patient with tinea pedis; assay: Prevention and treatment of tinea pedis; format: in vivo
# Experimental: To 2 L of warm water lower than 40° C. was added 2 mL of acetylcholinesterase aqueous solution (enzyme activity 300 U), and stirred slowly. The feet of a patient were immersed in the solution for 30 minutes, two times per day for three consecutive days.
# [6] = tested on: patients with swelling gingivitis and pain; assay: Prevention and treatment of gingivitis; format: in vivo; details: 300 U
# Experimental: Patients suffered from swelling gingivitis and pain. Sterile cotton swab was wetted by acetylcholinesterase (enzyme activity 300 U) and placed on the affected area for 10 min, one or two times per day.
# [7] = tested on: patients with allergic rhinitis; assay: Prevention and treatment of allergic rhinitis; format: in vivo; details: 300 U glycerol solution nasal spray, 3-5 times per day for a week; a month later, in most patients
# Description: Acetylcholinesterase (enzyme activity 300 U) glycerol solution was sprayed to the nose of a patient, 3-5 times per day, one spray each time. The course of treatment lasted a week.
# [8] = tested on: patient who caught a cold at early stage; assay: Prevention and treatment of common cold; format: in vivo; details: 200 U glycerol solution nasal spray
# Description: Acetylcholinesterase (enzyme activity 200 U) glycerol solution was sprayed to the nose of a patient who caught a cold at early stage, 3-5 times per day, one spray each time. Within an hour, symptoms such as headache and fever disappeared. Three days later, other symptoms disappeared, and overall wellbeing of the patient recovered to normal.
# [9] = tested on: patients with wound caused by trauma, burn or scald; assay: Prevention and treatment of trauma and inflammation; format: in vivo; details: enzyme activity 300 U, sprayed 1-3 times directly onto wound
# Description: Acetylcholinesterase (enzyme activity 300 U) was sprayed 1-3 times directly onto a wound. If necessary, gauze pretreated with acetylcholinesterase may also cover the wound. […] Pains disappeared. If the wound was not already inflamed, inflammation was not observed, the wound recovered naturally, and a week later dead skin started to fall off. If the wound was inflamed, the inflammation would not develop; three days later, the wound recovered naturally. The mentioned-above wound was a wound caused by trauma, burn or scald.
# [10] = intraperitoneal injection 0.1 mL/10 g, 200 U per mL
molecule,measurement,setting,value
B1,Swelling degree of the right hind limb of rats,[1]; 2 h after administration,0.74 ± 0.04
same,Swelling degree of the right hind limb of rats,[1]; 6 h after administration,0.84 ± 0.04
same,Swelling degree of the right hind limb of rats,[1]; 12 h after administration,0.87 ± 0.05
same,Swelling degree of the right hind limb of rats,[1]; 24 h after administration,0.83 ± 0.05
same,Swelling degree of the right hind limb of rats,[1]; 48 h after administration,0.74 ± 0.02
same,Swelling degree of the right hind limb of rats,[1]; 72 h after administration,0.76 ± 0.05
same,Swelling degree of the right hind limb of rats,[1]; 7 d after administration,0.67 ± 0.06
same,swelling degree compared with the negative control group,"[1]; at 48 h, 72 h and 7 d after administration, P<0.05",significantly decrease the swelling degree
same,number of the patients with summer diarrhea,[2],decreased greatly
same,writhing number compared with the saline solution group,"[3]; either by intraperitoneal injection or by skin smearing, P<0.05",significantly decreased the writhing number
same,Inhibition rate (%),[3]; [10],26.6%
same,Writhing number,[3]; [10],27.2 ± 9.50*Δ
same,inhibition rate on writhing compared with Fenbid,"[3]; intraperitoneal injection, P<0.05",higher inhibition rate on writhing in mice than Fenbid
same,Writhing number,[3]; smeared onto 1×1 cm cut area of the back,29.9 ± 5.17
same,Inhibition rate (%),"[3]; smeared onto the back, 200 U per mL",24.0%
same,capacity of hydrolyzing SP,[4],has the capacity of hydrolyzing SP
same,"amount of product, with Fe^+3 (FIG. 3) compared with without Fe^+3 (FIG. 8)",[4]; 60 minutes,much more products having a molecular weight of 1104
same,first restriction site,[4],between Leu^10 and Met^11
same,molecular weight of products detected,"[4]; in water without Fe^+3, FIGS. 6-9",1217 and 1104
same,molecular weight of product detected,"[4]; with Fe^+3 in water, at 25 minutes",1217
same,molecular weight of new fragments detected,"[4]; with Fe^+3 in water, at 60 minutes",1104 and 900
B2,pain,"[5]; 2 mL of 300 U solution in 2 L warm water, feet immersed 30 minutes, two times per day, three days",disappeared
same,"ringworm spot, smell and other symptoms",[5]; one week later,all gone
same,relapse and side effects,[6]; cotton swab on affected area,without relapse and side effects
same,inflammatory swelling,"[6]; cotton swab on affected area 10 min, one or two times per day, two days later",disappeared
same,"symptoms such as nasal obstruction, sneezing, runny nose, nose itching",[7],"disappeared, without relapse"
same,symptoms such as headache and fever,"[8]; 3-5 times per day, within an hour",disappeared
same,other symptoms,[8]; three days later,disappeared
same,pains,[9],disappeared
same,wound and inflammation in patients,[9],reduced significantly
same,capacity of hydrolyzing SP,[4],has the capacity of hydrolyzing SP
same,first restriction site,[4],between Leu^10 and Met^11
same,hydrolysis of C-terminal Met^11 of SP,"[4]; in water, 0-30 minutes, FIGS. 10-15",hydrolyzed quickly
same,SP fragment finally left,"[4]; in water, FIGS. 10-15",only a 1-5 peptide fragment was left

# From patent US20090263370A1, “METHODS FOR TREATING TACHYKININ-MEDIATED DISEASES WITH CHOLINESTERASE” (priority 2006, published 2009)
